The values below are quoted from earlier work in PMC4225561.

For this data set, the target named is Myo4p 27-residue fragment (Saccharomyces cerevisiae) (UniProt P32492). Put plainly: pull-down.
Chain of UniProt P32492 (P32492 528-554): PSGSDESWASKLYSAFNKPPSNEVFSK

By Kd is commonly meant the constant that tells how readily two partners part at equilibrium. Take She4p (from UniProt P51534): the Kd was 1000 nM.
